Residue numbers refer to the chain shown, from its start.
B1: 1′DelAl PR4 (designed binder)
chain: EVVAATPTSLLISWRHPHFPTRYYRITYGETGGNSPVQEFTVPLQPPTATISGLKPGVDYTITGYAVTVAQNDHELLTPISINYRT
notes: Del 1-8
B2: 2′Del G11 PR4 (designed binder)
chain: B1 chain with V69G, A70G, N72M, D73N, H74R, E75V, L77M
notes: Del 1-8
B3: 2′Del D5 PR4 (designed binder)
chain: B1 chain with Q71W, E75M, L77M
notes: Del 1-8
B4: 1′DelE2 PR4 (designed binder)
chain: B1 chain with A70G
notes: Del 1-8
B5: 1′DelH10 PR4 (designed binder)
chain: B1 chain with V69F
notes: Del 1-8
B6: 2′DelH4 PR4 (designed binder)
chain: B1 chain with A70G, Q71P, D73E, H74R, E75M, L77M
notes: Del 1-8
B7: 1′DelA2 PR4 (designed binder)
chain: B1 chain with D73G, E75Q, L77F
notes: Del 1-8
B8: 1′DelH5 PR4 (designed binder)
chain: B1 chain with H74R, L77F
notes: Del 1-8
B9: 2′Del B5 PR4 (designed binder)
chain: B1 chain with V69A, A70G, Q71R, N72H, L77I, T78I
notes: Del 1-8
B10: 2′DelA5 PR4 (designed binder)
chain: B1 chain with V69W, A70N, D73G, H74Q, L77F
notes: Del 1-8
B11: 2′Del B4 PR4 (designed binder)
chain: B1 chain with V69S, A70G, Q71H, D73G, L76V, L77M
notes: Del 1-8
B12: 2′Del F1 PR4 (designed binder)
chain: B1 chain with V69R, A70D, N72Y, D73E
notes: Del 1-8
B13: 1′DelD2 PR4 (designed binder)
chain: B1 chain with Q71K
notes: Del 1-8
B14: 2′Del C11 PR4 (designed binder)
chain: B1 chain with V69A, A70G, Q71L, D73E, T78I
notes: Del 1-8
B15: 2′Del D10 PR4 (designed binder)
chain: B1 chain with V69L, Q71D, D73A, H74R
notes: Del 1-8
B16: 2′DelC3 PR4 (designed binder)
chain: B1 chain with V69W, D73G, H74R
notes: Del 1-8
B17: 2′Del H5 PR4 (designed binder)
chain: B1 chain with V69L, A70G, Q71K, N72D, D73V, H74R
notes: Del 1-8
B18: 1′DelH12 PR4 (designed binder)
chain: B1 chain with D73E, H74R, L77F
notes: Del 1-8
B19: 2′DelB7 PR4 (designed binder)
chain: B1 chain with A70G, Q71Y, D73N, H74R
notes: Del 1-8
B20: 2′Del B2 PR4 (designed binder)
chain: B1 chain with V69T, A70G, Q71W, D73G, H74N, L77F
notes: Del 1-8
B21: 3A2 PR3 (designed binder)
chain: B1 chain with V69W, A70S, D73N, H74R, L77F
notes: Del 1-8
B22: 3C3 PR3 (designed binder)
chain: B1 chain with V69M, A70E, D73G, L77F
notes: Del 1-8
B23: 2′Del C8 PR4 (designed binder)
chain: B1 chain with V69T, Q71H, D73G
notes: Del 1-8
B24: 2′Del E6 PR4 (designed binder)
chain: B1 chain with V69M, A70G, Q71K, D73G
notes: Del 1-8
B25: 2′Del F8 PR4 (designed binder)
chain: B1 chain with V69A, A70G, Q71P, N72G, D73A
notes: Del 1-8
B26: 2′DelE4 PR4 (designed binder)
chain: B1 chain with A70H, Q71W, D73G, L77M
notes: Del 1-8
B27: 2′DelC7 PR4 (designed binder)
chain: B1 chain with V69W, A70D, D73G, E75V
notes: Del 1-8
B28: 1′DelE7 PR4 (designed binder)
chain: B1 chain with D73G, L77F
notes: Del 1-8
B29: 2′Del A2 PR4 (designed binder)
chain: B1 chain with V69G, A70G, Q71R, D73G, E75T
notes: Del 1-8
B30: 3B5 PR3 (designed binder)
chain: B1 chain with V69F, A70G, D73G, E75A
notes: Del 1-8
B31: 3B4 PR3 (designed binder)
chain: B1 chain with A70G, D73E
notes: Del 1-8
B32: 1′DelD1 PR4 (designed binder)
chain: B1 chain with A70T
notes: Del 1-8
B33: 1′Del G10 PR4 (designed binder)
chain: B1 chain with V69M, D73G, E75K, L77M
notes: Del 1-8
B34: 2′Del C5 PR4 (designed binder)
chain: B1 chain with V69P, A70G, Q71H, L77M, T78V
notes: Del 1-8
B35: 1′DelF3 PR4 (designed binder)
chain: B1 chain with V69M, E75K, L77F
notes: Del 1-8
B36: 2′Del E5 PR4 (designed binder)
chain: B1 chain with V69E, A70G, Q71L, L77I, T78I
notes: Del 1-8
B37: 2′Del B3 PR4 (designed binder)
chain: B1 chain with V69D, Q71P, D73G, H74R, L77M, T78V
notes: Del 1-8
B38: 1′DelD5 PR4 (designed binder)
chain: B1 chain with A70G, D73H, L77F
notes: Del 1-8
B39: 2′Del F7 PR4 (designed binder)
chain: B1 chain with V69L, A70G, Q71L, N72R, H74R, L77F, T78V
notes: Del 1-8
B40: 2′Del H12 PR4 (designed binder)
chain: B1 chain with V69A, A70G, Q71G, D73G
notes: Del 1-8
B41: 1′DelE6 PR4 (designed binder)
chain: B1 chain with V69L, H74R
notes: Del 1-8
B42: 2′Del D1 PR4 (designed binder)
chain: B1 chain with V69L, A70E, H74R, E75V
notes: Del 1-8
B43: 2′Del H6 PR4 (designed binder)
chain: B1 chain with V69T, A70G, Q71H, N72H, L77I, T78I
notes: Del 1-8
B44: 2′Del A11 PR4 (designed binder)
chain: B1 chain with V69E, A70D, Q71I, N72R, D73V, H74L, E75W, L77N, P79T
notes: Del 1-8
B45: 2′Del C6 PR4 (designed binder)
chain: B1 chain with V69M, A70G, Q71F, N72M, D73A, L77M, T78V
notes: Del 1-8
B46: 2′Del F5 PR4 (designed binder)
chain: B1 chain with V69L, A70V, Q71H, H74R
notes: Del 1-8
B47: 2′DelH9 PR4 (designed binder)
chain: B1 chain with A70G, Q71W, N72S, D73G, L77F, T78V
notes: Del 1-8
B48: 2′DelG5 PR4 (designed binder)
chain: B1 chain with A70G, D73N
notes: Del 1-8
B49: 3A3 PR3 (designed binder)
chain: B1 chain with V69L, Q71Y, D73G, H74R, L76I, L77I
notes: Del 1-8
B50: 2′Del E3 PR4 (designed binder)
chain: B1 chain with V69L, A70G, Q71P, N72Y, D73E
notes: Del 1-8
B51: 2′Del C1 PR4 (designed binder)
chain: B1 chain with V69A, A70G, Q71L, N72D, D73E, T78I
notes: Del 1-8
B52: 2′Del G9 PR4 (designed binder)
chain: B1 chain with A70E, D73G, H74R, L77I, T78I
notes: Del 1-8
B53: 2′Del F11 PR4 (designed binder)
chain: B1 chain with V69M, A70G, H74K, L77I
notes: Del 1-8
B54: 2′Del D3 PR4 (designed binder)
chain: B1 chain with V69S, A70G, Q71L, H74R, E75V, L77F, T78I
notes: Del 1-8

Target: T1, human vascular endothelial growth factor receptor-2 Fc chimera (KDR-Fc) (human, UniProt P35968 20-764)
T1 construct: range 1-764; also called human VEGFR-2; VEGF-R2-Fc; not shown: human IgG1 Fc
T1 sequence (P35968 20-764 limits assumed, change not shown, form in doubt): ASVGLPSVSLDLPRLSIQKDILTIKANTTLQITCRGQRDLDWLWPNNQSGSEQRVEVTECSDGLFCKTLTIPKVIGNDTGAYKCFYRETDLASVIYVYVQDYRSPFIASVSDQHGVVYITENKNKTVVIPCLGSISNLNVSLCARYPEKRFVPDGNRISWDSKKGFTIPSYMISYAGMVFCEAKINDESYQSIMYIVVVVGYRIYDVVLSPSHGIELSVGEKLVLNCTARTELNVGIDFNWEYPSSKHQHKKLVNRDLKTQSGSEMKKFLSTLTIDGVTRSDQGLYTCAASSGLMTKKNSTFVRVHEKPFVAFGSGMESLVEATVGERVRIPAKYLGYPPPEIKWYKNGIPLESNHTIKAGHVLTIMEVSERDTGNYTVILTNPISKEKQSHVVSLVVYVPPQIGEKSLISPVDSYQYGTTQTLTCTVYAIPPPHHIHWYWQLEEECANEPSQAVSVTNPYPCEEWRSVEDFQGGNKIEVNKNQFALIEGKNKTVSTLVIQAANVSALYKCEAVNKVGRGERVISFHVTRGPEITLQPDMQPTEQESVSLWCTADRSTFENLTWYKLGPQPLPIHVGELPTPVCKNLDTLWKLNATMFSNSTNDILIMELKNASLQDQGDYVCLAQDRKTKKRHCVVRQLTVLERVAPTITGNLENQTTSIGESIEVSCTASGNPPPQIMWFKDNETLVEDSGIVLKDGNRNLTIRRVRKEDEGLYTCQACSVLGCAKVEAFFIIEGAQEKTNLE
Assay: radioactive equilibrium binding, 1 nM KDR-Fc
Method: To prepare ³⁵S-labeled binding proteins for analysis, mRNA was prepared as described above for RNA-protein fusion production but the linker ligation step was omitted. The mRNA was expressed using rabbit reticulocyte lysate translation kit (Ambion) in the presence of ³⁵S-labeled Met at 30° C. for 1 hour. Expressed protein was purified on M2-agarose Flag beads (Sigma) as described above. This procedure produced the encoded protein without the nucleic acid tail. In a direct binding assay, VEGF-R2-Fc fusions in concentrations ranging from 0 to 200 nM were added to a constant concentration of the purified protein (0.2 or 0.5 nM) and incubated at 30° C. for 1 hour in buffer B. The receptor-binder complexes were captured using Protein A magnetic beads for another 10 minutes at room temperature using a Kingfisher™ The beads were washed with six reaction volumes of buffer B. The protein was eluted from the beads with 100 μL of 0.1 M KOH. […] of the reaction mixture and elution were dried onto a LumaPlate-96 (Packard) and the amount of ³⁵S on the plate was measured using a TopCount NXT instrument (Packard). The amount of fibronectin-based scaffold protein bound to the target was estimated as a percent of radioactivity eluted from Protein A magnetic beads compare to radioactivity in the reaction mixture. Nonspecific binding of fibronectin-based scaffold proteins to the beads was determined by measuring binding in the absence of KDR-Fc and represented less than 1-2% of the input. Specific binding was obtained through subtraction of nonspecific binding from total binding. Data was analyzed using the GraphPad Prizm software (GraphPad Software, Inc, San Diego, Calif.), fitted using a one site, non-linear binding equation.

Binder | Binding to 1 nM KDR, %
B1 | 14%
B2 | 22%
B3 | 18%
B4 | 16%
B5 | 17%
B6 | 30%
B7 | 23%
B8 | 17%
B9 | 33%
B10 | 20%
B11 | 31%
B12 | 20%
B13 | 17%
B14 | 34%
B15 | 34%
B16 | 29%
B17 | 34%
B18 | 18%
B19 | 32%
B20 | 29%
B21 | 23%
B22 | 17%
B23 | 15%
B24 | 43%
B25 | 42%
B26 | 34%
B27 | 19%

Binder | Binding to 1 nM KDR, %
B28 | 22%
B29 | 17%
B30 | 20%
B31 | 17%
B32 | 16%
B33 | 36%
B34 | 26%
B35 | 16%
B36 | 19%
B37 | 17%
B38 | 17%
B39 | 38%
B40 | 24%
B41 | 24%
B42 | 28%
B43 | 28%
B44 | 16%
B45 | 34%
B46 | 22%
B47 | 20%
B48 | 19%
B49 | 23%
B50 | 33%
B51 | 32%
B52 | 33%
B53 | 27%
B54 | 38%
